Numbering of substitutions follows the chain as printed.
B1: SRS* (SRS3) (structured_RNA)
RNA: GGUAUGUGUGAAUGUGCAUGAAUAUAUAUAUAUAUGCAUAUAUAUAUUUGUAUAUGUUCACACAUG

Columns and labels:
mStau2 full-length = molecular target: T1, mStau2 full-length (Mus musculus, UniProt Q8CJ67 1-570); test: EMSA; stated as 100 nM range; SPR: HBS-EP (10 mM HEPES pH 7.4, 150 mM NaCl, 3 mM EDTA, 0.005% P20); EMSA: 5 nM RNA, protein buffer (40 mM Bis-Tris pH 7, 150 mM NaCl, 2 mM DTT presumed), 4% glycerol, 30 ug/mL yeast tRNA, RT; NMR: 150 mM NaCl, 20 mM Na phosphate pH 7.0, 5 mM DTT, 298 K; settings: protein: recombinant; tags: HisSUMO; label: 5' 32P (EMSA); biotin (SPR); imperfect hairpin, 26 bp with two bulges
T1 sequence: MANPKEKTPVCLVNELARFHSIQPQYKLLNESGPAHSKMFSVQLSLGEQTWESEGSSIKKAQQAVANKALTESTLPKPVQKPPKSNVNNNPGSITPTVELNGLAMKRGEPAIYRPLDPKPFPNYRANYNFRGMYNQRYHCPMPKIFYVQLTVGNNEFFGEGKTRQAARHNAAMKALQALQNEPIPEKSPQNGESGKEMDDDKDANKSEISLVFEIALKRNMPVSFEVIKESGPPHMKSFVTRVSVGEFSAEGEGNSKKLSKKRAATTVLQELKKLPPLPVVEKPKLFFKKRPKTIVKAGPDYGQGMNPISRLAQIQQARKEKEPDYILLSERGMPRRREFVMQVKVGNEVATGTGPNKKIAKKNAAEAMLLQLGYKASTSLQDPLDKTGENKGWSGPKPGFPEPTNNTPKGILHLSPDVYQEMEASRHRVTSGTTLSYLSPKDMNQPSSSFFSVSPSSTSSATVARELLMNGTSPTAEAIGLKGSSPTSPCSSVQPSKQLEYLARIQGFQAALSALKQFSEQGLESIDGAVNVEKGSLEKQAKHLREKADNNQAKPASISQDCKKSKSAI

mStau2 dsRBD1-2 F40A = molecular target: T2, mStau2 dsRBD1-2 F40A (Mus musculus, UniProt Q8CJ67 8-181, F40A); test: SPR; Hill n 1; SPR: HBS-EP (10 mM HEPES pH 7.4, 150 mM NaCl, 3 mM EDTA, 0.005% P20); EMSA: 5 nM RNA, protein buffer (40 mM Bis-Tris pH 7, 150 mM NaCl, 2 mM DTT presumed), 4% glycerol, 30 ug/mL yeast tRNA, RT; NMR: 150 mM NaCl, 20 mM Na phosphate pH 7.0, 5 mM DTT, 298 K; settings: protein: recombinant; label: 5' 32P (EMSA); biotin (SPR); imperfect hairpin, 26 bp with two bulges
T2 sequence: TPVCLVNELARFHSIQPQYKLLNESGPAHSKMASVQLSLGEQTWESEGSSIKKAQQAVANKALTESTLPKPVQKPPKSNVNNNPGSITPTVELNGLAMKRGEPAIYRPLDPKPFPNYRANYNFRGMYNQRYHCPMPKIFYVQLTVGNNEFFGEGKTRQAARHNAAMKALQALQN

mStau2 dsRBD1-2 F157A = molecular target: T3, mStau2 dsRBD1-2 F157A (Mus musculus, UniProt Q8CJ67 8-181, F157A); test: SPR; Hill n 1.5; stable kinetics; SPR: HBS-EP (10 mM HEPES pH 7.4, 150 mM NaCl, 3 mM EDTA, 0.005% P20); EMSA: 5 nM RNA, protein buffer (40 mM Bis-Tris pH 7, 150 mM NaCl, 2 mM DTT presumed), 4% glycerol, 30 ug/mL yeast tRNA, RT; NMR: 150 mM NaCl, 20 mM Na phosphate pH 7.0, 5 mM DTT, 298 K; settings: protein: recombinant; label: 5' 32P (EMSA); biotin (SPR); hairpin, 18 bp stem
T3 sequence: T2 sequence with A33F, F150A

mStau2 dsRBD1-2 E15A = molecular target: T4, mStau2 dsRBD1-2 E15A (Mus musculus, UniProt Q8CJ67 8-181, E15A); test: SPR; Hill n 1; SPR: HBS-EP (10 mM HEPES pH 7.4, 150 mM NaCl, 3 mM EDTA, 0.005% P20); EMSA: 5 nM RNA, protein buffer (40 mM Bis-Tris pH 7, 150 mM NaCl, 2 mM DTT presumed), 4% glycerol, 30 ug/mL yeast tRNA, RT; NMR: 150 mM NaCl, 20 mM Na phosphate pH 7.0, 5 mM DTT, 298 K; settings: protein: recombinant; label: 5' 32P (EMSA); biotin (SPR); hairpin, 18 bp stem
T4 sequence: T2 sequence with E8A, A33F

mStau2 dsRBD1-2 H36A = molecular target: T5, mStau2 dsRBD1-2 H36A (Mus musculus, UniProt Q8CJ67 8-181, H36A); test: as above; settings: protein: recombinant; label: 5' 32P (EMSA); biotin (SPR); hairpin, 18 bp stem
T5 sequence: T2 sequence with H29A, A33F

Binder | Kd (mStau2 full-length) [nM] | Kd (mStau2 dsRBD1-2 F40A) [nM] | Kd (mStau2 dsRBD1-2 F157A) [nM] | Kd (mStau2 dsRBD1-2 E15A) [nM] | Kd (mStau2 dsRBD1-2 H36A) [nM]
B1 | ~100 | 769 ± 427 | – | – | –
GGUAUAUACAUGCACAUGCAAUUUGUGUAUGUGUAUGUAUAUA (structured_RNA) [SRS2+5] | – | – | 497 ± 238 | 132 ± 31 | 701 ± 386

From paper PMC6477676, “Staufen2-mediated RNA recognition and localization requires combinatorial action of multiple domains”
